Results on 1 molecule are retold here after paper PMC8159449.

This data set has as its target T1, retinoblastoma protein (RB) (Homo sapiens, UniProt P06400 1-928).
T1 sequence: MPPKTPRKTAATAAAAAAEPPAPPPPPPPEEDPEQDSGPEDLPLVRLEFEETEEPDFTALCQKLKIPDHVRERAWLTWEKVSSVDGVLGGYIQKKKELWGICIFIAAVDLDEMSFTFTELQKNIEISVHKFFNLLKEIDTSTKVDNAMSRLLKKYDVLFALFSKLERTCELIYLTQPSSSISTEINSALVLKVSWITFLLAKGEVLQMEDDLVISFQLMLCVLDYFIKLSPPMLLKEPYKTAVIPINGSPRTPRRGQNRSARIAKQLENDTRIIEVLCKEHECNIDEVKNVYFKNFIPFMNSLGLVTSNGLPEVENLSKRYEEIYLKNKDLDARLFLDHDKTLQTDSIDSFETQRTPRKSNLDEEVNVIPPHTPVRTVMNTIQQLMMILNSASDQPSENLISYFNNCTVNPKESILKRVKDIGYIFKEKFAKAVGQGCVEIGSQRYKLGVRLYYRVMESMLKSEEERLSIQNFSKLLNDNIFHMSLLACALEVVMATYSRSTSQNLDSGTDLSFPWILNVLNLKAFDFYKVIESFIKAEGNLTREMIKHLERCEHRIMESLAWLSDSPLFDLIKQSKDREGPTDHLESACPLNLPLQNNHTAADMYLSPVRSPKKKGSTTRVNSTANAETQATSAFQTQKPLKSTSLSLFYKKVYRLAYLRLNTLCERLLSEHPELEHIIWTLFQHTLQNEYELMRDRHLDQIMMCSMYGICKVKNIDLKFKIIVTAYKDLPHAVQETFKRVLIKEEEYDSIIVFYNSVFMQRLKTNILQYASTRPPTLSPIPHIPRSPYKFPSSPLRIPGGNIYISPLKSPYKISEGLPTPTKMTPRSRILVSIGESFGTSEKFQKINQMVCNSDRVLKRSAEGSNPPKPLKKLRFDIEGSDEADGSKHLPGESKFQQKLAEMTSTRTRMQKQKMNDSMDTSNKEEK
The experiment in a line: ELONA.

The molecule GGAGGGUGGAGGGAAGGG (structured_RNA) [18E16] showed a Kd of 5.1 ± 0.7 nM.

The Kd is the concentration at which binding is half-saturated. A low value points to higher affinity.
